According to patent US20210205365A1, “Chimeric Growth Factor Receptors” (Instil Bio (UK) Ltd., priority 2018, published 2021):

B1: TpoR.IL2rγ: SEQ ID NO: 6; TpoR fused to IL2rγ cytoplasmic domain (protein)
chain: MPSWALFMVTSCLLLAPQNLAQVSSQDVSLLASDSEPLKCFSRTFEDLTCFWDEEEAAPSGTYQLLYAYPREKPRACPLSSQSMPHFGTRYVCQFPDQEEVRLFFPLHLWVKNVFLNQTRTQRVLFVDSVGLPAPPSIIKAMGGSQPGELQISWEEPAPEISDFLRYELRYGPRDPKNSTGPTVIQLIATETCCPALQRPHSASALDQSPCAQPTMPWQDGPKQTSPSREASALTAEGGSCLISGLQPGNSYWLQLRSEPDGISLGGSWGSWSLPVTVDLPGDAVALGLQCFTLDLKNVTCQWQQQDHASSQGFFYHSRARCCPRDRYPIWENCEEEEKTNPGLQTPQFSRCHFKSRNDSIIHILVEVTTAPGTVHSYLGSPFWIHQAVRLPTPNLHWREISSGHLELEWQHPSSWAAQETCYQLRYTGEGHQDWKVLEPPLGARGGTLELRPRSRYRLQLRARLNGPTYQGPWSSWSDPTRVETATETAWISLVTALHLVLGLSAVLGLLLLRWQFPAHYRRLRHALWPSLPDLHRVLGQYLRDTAALSPPKATVSDTCEEVEPSLLEILPKSSERTPLPLCSSQAQMDYRRLQPSCLGTMPLSVCPPMAESGSCCTTHIANHSYLPLSYWQQPERTMPRIPTLKNLEDLVTEYHGNFSAWSGVSKGLAESLQPDYSERLCLVSEIPPKGGALGEGPGASPCNQHSPYWAPPCYTLKPET
modifications: TpoR.IL2rgamma; MISC_FEATURE (1)..(491): TpoR Extracellular Domain; MISC_FEATURE (492)..(513): TpoR Transmembrane Domain; MISC_FEATURE (514)..(635): TpoR Cytoplasmic Domain; MISC_FEATURE (636)..(721): IL2r-gamma Cytoplasmic Domain
B2: TpoR.CD40: SEQ ID NO: 9; TpoR fused to CD40 cytoplasmic domain (protein)
chain: MPSWALFMVTSCLLLAPQNLAQVSSQDVSLLASDSEPLKCFSRTFEDLTCFWDEEEAAPSGTYQLLYAYPREKPRACPLSSQSMPHFGTRYVCQFPDQEEVRLFFPLHLWVKNVFLNQTRTQRVLFVDSVGLPAPPSIIKAMGGSQPGELQISWEEPAPEISDFLRYELRYGPRDPKNSTGPTVIQLIATETCCPALQRPHSASALDQSPCAQPTMPWQDGPKQTSPSREASALTAEGGSCLISGLQPGNSYWLQLRSEPDGISLGGSWGSWSLPVTVDLPGDAVALGLQCFTLDLKNVTCQWQQQDHASSQGFFYHSRARCCPRDRYPIWENCEEEEKTNPGLQTPQFSRCHFKSRNDSIIHILVEVTTAPGTVHSYLGSPFWIHQAVRLPTPNLHWREISSGHLELEWQHPSSWAAQETCYQLRYTGEGHQDWKVLEPPLGARGGTLELRPRSRYRLQLRARLNGPTYQGPWSSWSDPTRVETATETAWISLVTALHLVLGLSAVLGLLLLRWQFPAHYRRLRHALWPSLPDLHRVLGQYLRDTAALSPPKATVSDTCEEVEPSLLEILPKSSERTPLPLCSSQAQMDYRRLQPSCLGTMPLSVCPPMAESGSCCTTHIANHSYLPLSYWQQPKKVAKKPTNKAPHPKQEPQEINFPDDLPGSNTAAPVQETLHGCQPVTQEDGKESRISVQERQ
modifications: TpoR-CD40; MISC_FEATURE (1)..(491): TpoR Extracellular Domain; MISC_FEATURE (492)..(513): TpoR Transmembrane Domain; MISC_FEATURE (514)..(635): TpoR Cytoplasmic Domain; MISC_FEATURE (636)..(697): CD40 Cytoplasmic Domain

Assays:
[1] = system: circulating platelets; conditions: 73 healthy volunteers, higher doses; cited from earlier work
[2] = system: phospho-STAT5; assay: Induction of pSTAT5 in CrGFR expressing T-cells; type: cell-based, human; conditions: T-cells transduced with wt TpoR, TpoR.CD40 or TpoR.IL2rγ
Procedure: FIG. 15—Induction of pSTAT by chimeric recombinant growth factor receptors. Primary human T-cells were isolated and transduced with the indicated CrGFR. Cells were enriched for CrGFR expression using Miltenyi MACS technology and expanded via polyclonal stimulation. The enriched cells were stimulated for 4 h with either media alone (RPMI), IL2, IL12, Tpo or Eltrombopag (Elt) before methanol fixation and intracellular staining with antibodies towards phospho-STAT5.
Finally, Applicants validated the signalling potential of the novel CrGFR by conducting phospho STAT analysis upon treatment of CrGFR expressing T-cells with media, cytokine or drug. To this end T-cells from 4 donors were transduced with either the wt TpoR, TpoR. CD40 or TpoR.IL2rγ, enriched for CrGFR expression using paramagnetic bead selection protocols and then expanded using polyclonal stimulation. The cells were treated for four hours with media alone (RPMI), IL-2, Tpo or Eltrombopag (Elt) before methanol fixation, permeabilization and analysis using pSTAT specific antibodies. STAT molecules are the key drivers of cell signalling upon cytokine activation of cells, pSTAT5 in particular is key to IL-2 activity.

[3] = system: primary human T-cells; assay: Eltrombopag and IL-2 on CrGFR transduced primary human T-cells, up to 21 days; type: cell-based; conditions: after 21 days, x3 donors, Eltrombopag
Procedure: (§1) FIGS. 6A-6B—Analysis of Eltrombopag and IL-2 on primary human T-cells from Donor 1. Primary human T-cells from donor 1 were transduced with the WT TpoR or variant CrGFR and incubated in the presence of IL2 or Eltrombopag. Cells were removed at time points up to 21 days and the proportion of cells expressing the receptor assessed using PE conjugated anti-CD110 antibodies and a MACSQuant analyser.
as §1, with “FIGS. 7A-7B—Analysis” for “FIGS. 6A-6B—Analysis”, “Donor 2.” for “Donor 1.”, “donor 2” for “donor 1”
as §1, with “FIGS. 8A-8B—Analysis” for “FIGS. 6A-6B—Analysis”, “Donor 3.” for “Donor 1.”, “donor 3” for “donor 1”
FIGS. 9A-9B—Selection of optimal CrGFRs for next round of analysis. Flow cytometry plots showing expression of CrGFRs in ×3 donor primary human T-cells after 21 days incubation in Eltrombopag. The receptors TpoR.CD40, TpoR.IL2rγ, TpoR.ITAM1, TpoR.A60, TpoR.LMP1-cyto and TpoR.TpoR-cyto.LMP1-cyto were chosen for future comparison with the wt TpoR.
Peripheral blood mononuclear cells were isolated from normal healthy donors before activation for 24 hours with T-cell activation and expansion beads (Invitrogen) according to the manufacturer's instructions before addition of lentiviral supernatants.
Following expansion cells were washed excessively to remove any exogenous IL2 and plated into 96-well U-bottom plates. Cells were supplemented with IL2 (Proleukin) or Eltrombopag (Stratech Scientific, Suffolk, UK). At various time points thereafter cells were either stained with a 1:400 dilution of eFlor-450 fixable viability dye (eBioscience, UK) and counted directly from the wells using a MACSQuant Cytometer, or were stained with DRAQ7 viability dye plus phycoerythrin conjugated anti-CD110 antibodies (Miltenyi Biotec, UK) and analysed using a MACSQuant cytomter. Cell viability and/or transduction level was then analysed using MACSQuantify software (Miltenyi Biotec, UK).
Next Applicants took these receptors and expressed them in primary human T-cells and exposed these cells to IL-2 or Eltrombopag. Three donor primary human T-cell populations were isolated from buffy coats and transduced with the indicated lentiviral constructs in the presence of CD3/CD28 Dynabeads. Following expansion the cells were incubated with IL-2 or Eltrombopag. Applicants saw an increase in expansion/survival of T-cells with some of the receptors in some of the donors. […] This narrowed Applicants' panel of receptors to analyse further to: TpoR.CD40, TpOR.IL2rγ, TpoR.ITAM1, TpOR.LMP1-cyt, and TpoR.TpoR-cyt-LMP1-cyt.

[4] = system: primary human T-cells; assay: Eltrombopag and IL-2 on CrGFR sorted (CD110+) primary human T-cells, up to 7 days; type: cell-based; conditions: for expansion of CrGFR cells above that with media alone: second donor (FIG. 12)
Procedure: (§2) FIG. 10—Analysis of Eltrombopag and IL-2 on CrGFR sorted primary human T-cells from Donor 4. Primary human T-cells from donor 4 were transduced with the WT TpoR or variant CrGFR, and enriched for expression by Miltenyi MACS technology selected for and incubated in the presence of IL2 or Eltrombopag. Cells were removed at time points up to 7 days and the number of cells expressing the receptor assessed using PE conjugated anti-CD110 antibodies, DRAQ7 viability dye and a MACSQuant analyser.
as §2, with “11—Analysis” for “10—Analysis”, “5.” for “4.”, “5” for “4”
as §2, with “12—Analysis” for “10—Analysis”, “6.” for “4.”, “6” for “4”
Paramagnetic bead sorts were conducted as per the manufacturers' instructions using either anti-PE microbeads (Miltenyi Biotec or StemCell Technologies), or T-cell isolation beads (17951: StemCell Technologies).
Next Applicants repeated the experiment but sorted the CrGFR+ cells using CD110+ selection by paramagnetic bead selection using the receptors identified from the first round of selections (FIGS. 10, 11 and 12). Applicants observed enhanced survival of T-cells engrafted with the majority of the CrGFR in all three donors. In particular Applicants saw expansion of WT-TpoR, TpOR.CD40, TpOR.IL2rγ and TpoR.LMP1-cyto cells in the second donor (FIG. 12) above that with media alone.

[5] = system: ovarian TIL; assay: CrGFR in ovarian TIL mixed with patient matched tumour cells; type: cell-based, human; conditions: all three donors
Procedure: (§3) FIG. 14—Analysis of Chimeric recombinant Growth Factor Receptors in Ovarian TIL. Tumour Infiltrating Lymphocytes from ×3 ovarian TIL were transduced with the WT TpoR or indicated variant CrGFR and incubated in the presence of patient matched tumour cells with either Eltrombopag or no growth factors. Cells were analysed and counted at days 4 and 7 and the number of cells expressing the receptor assessed using PE conjugated anti-CD110 antibodies, DRAQ7 viability dye and a MACSQuant analyser. Graphs show counts between days 4 and 7 when recovery of TIL occurs after an initial contraction in numbers driven by tumour regulatory factors and/or activation induced cell death.
Applicants evaluated further the effect of the CrGFR in ovarian TIL. Three ovarian TIL populations were engineered to express either the WT, or TpoR.CD40, TpoR.IL2rγ or TpoR.LMP1-Cyt variant receptors and mixed with patient matched tumour cells in the presence or absence of Eltrombopag. Counts of total and CD110+ cells were made after 4 and 7 days. Applicants observed specific expansion of the CrGFR+ cells in the presence of tumour between days 4 and 7 in donors 2 and 3 with all the receptors except the TpOR.LMP1.cyt.

[6] = system: Tumour Infiltrating Lymphocytes from TIL042; assay: CrGFR in TIL042 mixed with patient matched tumour cells; type: cell-based, human
Procedure: as §3, with “FIG. 13—Analysis” for “FIG. 14—Analysis”, “in TIL042.” for “in Ovarian TIL.”, “from TIL042” for “from ×3 ovarian TIL”, “tumour lines” for “tumour cells”, “with the addition of IL2, Eltrombopag, IL-2+Eltrombopag,” for “with either Eltrombopag”
Applicants next assessed the ability of these receptors to promote survival/expansion in a model of adoptive cell therapy by engineering tumour infiltrating lymphocytes. TIL from patient TIL042 (Uveal melanoma) were engineered with the variant or wt CrGFR and mixed with patient matched tumour cells (CTUM42.1). On days 4 and 7 counts were made of the total cells as well as the CD110+ cells. Applicants found an initial decline in cell numbers, probably driven by AICD or intrinsic inhibitory factors. However between days 4 and 7 Applicants observed an increase in the numbers of CD110+ cells with all the receptors tested with Eltrombopag or Eltrombopag+low dose IL-2.

Molecule | tolerability [1] | STAT5 activation of the CrGFR when stimulated with Eltrombopag [2] | proportion of viable cells with a distinct population of CD110+ cells [3] | expansion of CrGFR cells above that with media alone [4] | activity compared with the WT receptor [5] | activity in primary human T-cells ([4]; conclusion) | non-specific enrichment in IL2 alone ([6]; TIL042 with patient matched tumour cells) | Eltrombopag mediated survival/expansion of TIL ([6]; conclusion)
CC1=NN(c2ccc(C)c(C)c2)C(=O)/C1=N\Nc1cccc(-c2cccc(C(=O)O)c2)c1O [Eltrombopag] | without tolerability problems | – | – | – | – | – | – | –
B1 | – | clear activation of the correct STAT5 activation pathway | good proportion of viable cells with a distinct population of CD110+ cells | expansion | superior to that of the WT receptor | – | – | –
B2 | – | – | good proportion of viable cells with a distinct population of CD110+ cells | expansion | superior to that of the WT receptor | optimal activity | no non-specific enrichment | very specific
